Test results published in the RNAGym collection of RNA variant scans (doi:10.1073/pnas.2313332121).
Variants at the floor of the assay were thinned out.

B1: TPR 5TU (parent)
chain: GGAUCUUCUCGAUCUAACAAAAAAGACAAAUCUGCCACAAAGCUUGAGAGCAUCUUCGGAUGCAGAGGCGGCAGCCUUCGGUGGCGCGAUAGCGCCAACGUUCUCAACUAUGACACGCAAAACGCGUGCUCCGUUGAAUGGAGUUUAUCAUG

Variants of: B1
Assay: polymerase ribozyme fitness, log enrichment relative to wild type (log ratio); higher = more active; in vitro selection for triplet polymerase activity
Procedure, shortened: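 Each subunit of a heterodimeric triplet polymerase ribozyme was mutagenized into a library by PCR, transcribed, and subjected to one round of in vitro selection, run in triplicate. Libraries were annealed with a biotinylated primer, the partner subunit and triplets, incubated frozen at −7 °C, and extended constructs were gel-excised, captured on streptavidin beads and recovered by RT-PCR. Input and output libraries were sequenced on Illumina, keeping genotypes with ≥10 input reads and ≥1 read per output. Fitness is log base 2 of genotype enrichment divided by wild-type enrichment, from inverse-variance-weighted replicate averages.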

GGAUCUUCUCGAUCUAACAAUAAUGACAAAUCUGCCACAAAGCUUGAGAGCGUCUUCGGAUGCAGAGGCGUCAGCCUUCGGUGGCGCGACAGCGCCAACGUUCUCAACUAUGACACGCAAAAUGCUUGCUCCGUUGAAUGGAGAUUCUCAAG and GGAUCUUCUCGAUCUAACAAAAAUGACAAAUCUGCCACAAACCUUGAGAUCAUCUUCGGAUGCAGAGGCGGCAGCCUUCGGUGGGGCGAUAGCGCCAACGUUCUCAACUAUGACACGCAAAACGCGUGCUCCGUUAAAUGAAGUUUAUCAUG cannot be ordered by “polymerase ribozyme fitness (log ratio)” value: ≤ -4.2 for the first, ≤ -4.2 for the second.

Going from GGAUCUUCUCGAUCUAACAAAAAAGACAAAUCUGCCACAAAGCUUGAGAGCAUCUUCGUAUGCAGAGGCGGCAGCCUUCGGUGGCGCGAUAGCGCCCACGUUCUCAACUAUGACACGCAAAACGCGUGCUCCGUUGAAUGGAGUUUAUCAUG to GGAUCUUCUCAAUCUAACAAAAAAGACAAAUCUGCCACAAAGCUUGAGACCAUCUUCGGAUGCAGAGGCGGCAGCCUUCGGUGGCGCGAUAGUGCCUACGUUCUCAACUAUGACACGCAAAACGCGUGCUCCGUUGAAUGUAGUUUAUCAUG, the “polymerase ribozyme fitness (log ratio)” value falls from -0.238 to ≤ -4.2.

Going from GGAUCUUCUCGAUCUAACAAAAAAGACAAAUCUGCCACAAAGCUUGAGUGCAUCAGCGGAUGCAGAGGCGGCAGCCUUCGGUGGCGCGAUAGCGCCAACGUUCUCAACUAUGACACGCAAAACGCGUGCUCCGUUGAAUGGAGUUUAUCAUG to GGAUCUUCUCGAUCUAACAAAAAAGACAAAUCUGCCACAAAGCUUGAGAGCAUCUUCGGAUGCAGAGGCGGCAGCCUUCGGUGGAGCGAUAGCGCCAACGUUCUCAACUAUGACACGCUAAUCGCGUGCUCCGUUGAAUGAAGUUUAUCAUG, the “polymerase ribozyme fitness (log ratio)” value rises from -1.76 to 0.358.

GGAUCUUCUCGAUCUAACAAAAAAGACAAAUCUGCCACAAAGCUUGAGAGCAUCCUCGGAUACCGAGGCGGGAGCCUUCGGUGGCGCGAUAGCGCCAACGUUCUCAACUAUGACACGCAAAACGCGUGCUCCGUUGAAUUGAGAUUAUCAUG and GGAUCUUCUCGAUCUAACAAAAAAGACAAAACUGCCACAAAGCUUGAGAGCAUCUUCGGAUGCAGCCGCGGCAGCCUUCGGUGGCGCAAUAGCGCCAACGUUCUCAACUAUGACACGCAAAACGCGUGCUCCGUUGAAUGAAGUUGAUCAUG cannot be ordered by “polymerase ribozyme fitness (log ratio)” value: ≤ -4.2 for the first, ≤ -4.2 for the second.

First: GGAUCUUCUCGAUCUAACAAAUAAGACAAAUCUGCCACAAAGCUUGAGAGCAUCUUCGGAUGCAGAGGCGGCAGCCUUCGGUGGCGCGAUAGCGUCAACGUUGUCAACUAUGACACGCAAAACGCGUGCUCCGUUGAAUGGAGUUUAUCAUG
Second: GGAUCUACUCGAUCUAACAAAAAAGACAUAUCUGCCACAAAGCUUGAGCGCAACUUCGGAUGCAGAGGCGGCAGCCUUCGGUGCCGCGAUAGCGCCAACGUCCUCAACUAUGACACGCAAAACGCGUGCUCCGUUGAAUGGAGUUUAUCAUG
The “polymerase ribozyme fitness (log ratio)” value of the first is higher: -1.55 for the first, ≤ -4.2 for the second.

GGACCUUCUCGAUCUAACAAAAAAGACAAAUCUGCCACAAAGCUUGAGACCAUCUACGGAUGCAGAGGCGGCAACCUUCGGUGGCGAUAUAGCGCCAACGUUCUCAACUAUGACAUGCAAAACGCGUGCUCCGUUGAAUGGAGUUUAUCAUG and GGAUCUUCUCCAUCUAACAAAAAAGACAAAUCUGCCACAAAGCUUGAGAGCAUCAUCGGAUGCAGAGGCGGCAGCGUUCGGUGGCGCGAUAGCGCCAACGUUCUCAACUAUGACACGCAAAACGCGUGCUCCGUUGAAUUGAGUUUAUCAUG cannot be ordered by “polymerase ribozyme fitness (log ratio)” value: ≤ -4.2 for the first, ≤ -4.2 for the second.

First: GGAUCUUCUCGAUCUAACAAAAAAGACAAAUCUGCCACAAAGCUUGAGAGCAUCUUCGGAUGCAGAGGCGGCAGCCUUCGGUGGCGCGAUAGCGCCAACGUUCUCAACUAUGACACGAAAAACGCGUGCUCCGUUGAAUGGAGUUUAUCAUG
Second: GGAUCUUCUCGAUCUAACAAAAAAGACAAAUCUGCCACAAAGCUUGAGAGCAUCUUCGGAUGCAGAGGCGGCAGCCUUCAGUGGCGCGAUAUCGCCAACGUUCUCAACUAUGACACGCAAAACGCGUGCUCCGUUGAAUGGAGUUUAUCAUG
The “polymerase ribozyme fitness (log ratio)” value of the first is higher: -0.751 for the first, -3.2 for the second.

Compared with GGAUCUUCUCGAUCUAACAAAAAAGACAAAUCUGCCAUAACGCUUGAGAGCAUCUUCGGAUGCAGAGGCGGCAGCCUUCGGUGGCGCGAUAGCGCCAACGUUCUCAACUAUGACACGCAAAACGCGUGCUCUGUUGAAUGGAGUUUAUCAUG, GGAUCUUCUCGAUCUAACAAUAAAGACAAAUCUGCCACAAAGCUUGAGAGCAUCUUCGGAUGCAGAGGCGGCAGCCUUCGGGGGCGCGAUAGGGCCAACGUUCUCAACUAUGACACGCAAAACGCGUGCUCCGUUGAAUGGAGUUUAUCAUG is lower in “polymerase ribozyme fitness (log ratio)” value: -1.49 for the first, -3.69 for the second.

First: GGAUCUUCUCGAGCUAACAACAAAGAAAAAUCUGCCACAAAGCUUGAGAGCAUCAUCGGAUGCAGAGGCGGCAGCCUUCGGUGGCGCGAUAGCGCCAAAGUUGUCAACUAUGACACGCAAAACGCGUGCUCCGUUGAAUGGAGUUUAUCAUG
Second: GGAUCUUCUCGAUCUAACAAAAAAGACAAAUCUGCCACAAAGCUUGAGAGCAUCUUCGGAUGCAGAGGCGGCUGCCUUCGGUGGCGCGAUAGCGCCAACGUUCUCAACUAUGACACGCAAAACGCUUGCUCCGUUGAAUGGAGUUUAUCAUG
The “polymerase ribozyme fitness (log ratio)” value of the first is lower: ≤ -4.2 for the first, -0.661 for the second.

First: GGAUCUUCUCGAUCUAACAAAAAAGACAAACCUGCCACAAAGCUUGAGAGCAUCUUCGGAUGCAGAGGCGGCAGCCUUCGGUGGCGCGAUAGGGCCAACGUUCUCAACUAUGACACGCAAAACGCGUGCUCCGUUGAAUGGAGUUUAUCAUG
Second: GGAUCAUCUCGAUCUAACAAAAAAGACAAAUCUGCCACAAAGCUUGAGAGAAUCUUCCGAUGGAGAGGCGGCAGCCUUCGGUGGCGCGAUAGGGCCAACGUUCGCAACUAUGACACGCAAAACGCGUGCUCCGUUGAAUGGAGUAUACCAUG
The “polymerase ribozyme fitness (log ratio)” value of the first is higher: -3.06 for the first, ≤ -4.2 for the second.

Going from GGAUCUUCUCGAUCUAAUAAAAAACACAAAUCUGCCACAAAGGUUGAGAGCAUCUUCGGAUGCAGAGGCGGCAGCCUUCGGUGGCGCGAUAGCGCCAAAGUUCUCAACUAUGACACGCAAAACGCGUGCUCCGUUGAAUGGAGUUUAUCAUG to GGAUCUUCUCGAUCUAACAAAAAAGACAAAUCUGCCACAAAGCUUGAGAGCAUGUUCGGAUGCAGAGGCGGCAGCCUUCGGUGGCUCGAUAGCGCCAACGUUCUCAACUAUGACACGCAAAACGCGUGCUCCGUUGAAUGGAGUUUAUCAUG, the “polymerase ribozyme fitness (log ratio)” value rises from ≤ -4.2 to -3.24.

Going from GGAUCUUCUCGAUCUAACAAAAAAGACAAAUCUGCCACUAAGCUUGAGAGCAUUUUCGGAUGCAGAGGCGGCAGCCUUCGGUGGCGAGAUAGCGCCAAAGUUCUCAACUAUGACACGCAAAACGCGUGCUCCUUUGAAUGGAGUUUAUCAUG to GGAUCUUCUCGAUCUAACAAAAAAGACAAAUGUGCCACAAAGCUUGAGAGCAUCUUCGAAUGCAGAGGCGGCAGCCUUCGGUAGCGCGAUAGCGCCACCGUUCUCAACUGUGACACGCAAAACGCGUGCUCCGUUGAAUGGAGUUUAUCAUG, the “polymerase ribozyme fitness (log ratio)” value rises from ≤ -4.2 to -4.09.

Compared with GGAUCUUCUCGAUCUAACAAAAAAGACAAAUCUGCCACAAAGCUUGAGAGCAUCUUCGGAUGCAGAGGCGGCAGCAUUCGGUGGUGCGAUAGCGCCAACGUUCUCAACUAUGACACGCAAAACGCGUGCUCCGUUGGAUGGAGUUUAUCAUG, GGAUAUUCUCGCUCUAACUAAAAAGACAAAUCUGCCACAAAGCUUGAGAGCAUCUUCGGAUGCAGAGGCGGCAGCCUUCGGUGGCGCGAUAGCGCCAACGUGCUCAACUAUGACAAGCGAAACGCGUGCUCCGUACAAUGGAGUUUAUCAUG is lower in “polymerase ribozyme fitness (log ratio)” value: -1.76 for the first, ≤ -4.2 for the second.

Going from GGAUCUUCUCGAUCUAACAAAAAAGACAAAUCUGCCACAAAGCUUGAGAGCAUCUUCGGAUGCAGAGGCGGCAGCCUUCUAUGGCGCGAUAGCGCCAACGUUCUCAACUAUGACACGCAAAACGCGUGCUCCGUUGAAUGGGGUUUAUCAUG to GGAUCUUCUCGAUCUAACAAAAAAGACAAAUCUGCCACAAAGCUUGAGAGCAUCUGCGGAUGCACACGCGGCAGCCUUCGGUGGAGCGAUAGGGCCAACGUUCUCAACUAUGACACGUAAAACGCGUGCUCCGUUGAAUGGAGUUUAUAAUG, the “polymerase ribozyme fitness (log ratio)” value falls from -1.49 to ≤ -4.2.

Going from GGAUCUUCUCGAUCUAACAAAAAAGACAAAUCUGCCACAAAGCUUGAGAGCAUCUUGGGAUGCAGAGGCGGCAGCCUUCGGUGGCGCGAUAGCGCCAACGUUGUCAACUAUGACACGCAAAACGCGUGCUCCGUUGAAUGGAGUUUAUCAUG to GGAUCUUCUCGAUCUAACAAAAAAGACAAAUCUGCCACAAAGCUUGAGAGCAUCUUCGGAUGCAGAGGCGGCUGCCUUCGGUGACGCGAUAGCGCCAACGUUCUCAAGUAUGACACGCAAAACGCGUGCUCCGUUGAAUGAAGUCUAUCAUG, the “polymerase ribozyme fitness (log ratio)” value falls from -2.16 to ≤ -4.2.

Compared with GGAUCUUCUUGAUCUAACAAAAAAGACAAAUCUGCCACAAAGCUUGAGAGCAUCUUCGGAUGCAGAGGCGGCAGCCUUCGGUGUCGCGAUAGCGCCAACGUUCUCAACUAUGACACGCAAAACGCGUGCUCCGUUGAAUGGAGUUUAUCAUG, GGAUCUUCUCGAUCUAACAAAAAAGACAAAUCUGCCACAAGGCUUGCGAGCAUCUUCGGAUGCAGAGGCGGCAGCCUUCGCUGGCGCGAUAGCGCCAACGUUCUCAACUAUGACACGCAAAACGCGUGCUCCGUUGAAUGGAGUUUAUCAUG is higher in “polymerase ribozyme fitness (log ratio)” value: -4.13 for the first, -0.0928 for the second.

GGAUCUUCUCGAUCUAACAAAAAAGACAAAUCUGCCACAAAGCUUGAGAGCAUCUUAGGAUGCAGAGGCGGCAGCCUUCGGUGGCGCGAUAGCGCCAACGUUCUCACCUAUGACACGCAAAACGAGUGCUCCAUUAAAUGGAGUUUAUCAAG and GGAUCUUAUCGAUCUAACAAAAAAGACAAAUCUGCCACAAAGCUUGAGAGCAUCUUCGGAUGCAGAGGCGGCAGCAUUCGGUGGUGCGAUAGCGCCAACGUUCUCAACUAUGACACGCAAAACGCGUGCUCCGUUGAAUGGACUUUAUCUUG cannot be ordered by “polymerase ribozyme fitness (log ratio)” value: ≤ -4.2 for the first, ≤ -4.2 for the second.

GGAUCUUCUCUAUCUAACAAUAAAGACAAAUCUGCCACAAAGCUUGAGAGCAUCUUCGGAUGCAGAGGCGGCACCCUUCGGUGGCGCGAUAUCGCCAACGUUCUCAACUAUGACACGCAAAACGCGUGCUCCGUUGAAUGGAGUUUAUCAUG and GGUUCUUCUCGAUCUAACAAAAAAGUCAAAUCUGCCACAAAGCUUGAGAGCAUCUUUGGAUGCAGAGGCGGCAGCCUUCGGUGGCGCGAUAGCGCCAACGUUCUCAAUUAUGACACGCAAAACGAGUGCUCCGUUGAAUGGAGUUUCGCAUG cannot be ordered by “polymerase ribozyme fitness (log ratio)” value: ≤ -4.2 for the first, ≤ -4.2 for the second.

Compared with GGAUGUUCUCGAUCUAACAAAAAAGACAAAUUUGCCACAAAGCUUGAGAGCAUCUUCGGAUGCAGAGGCGGCAGCCUUCGGUGGCGCGAUGGCGCCAACGUUCUCAACUAUGACGCGCAAAACGCGUGCUCCGUUGAAUGGAGUUUAUCAUG, GGAUCUUCUCGAUCUAACAAAAAAGACAAAUCUGCCACAAAGCUUGAGAGCAUCUUCGGAUGCAGAGGCGGCAGCCUUCGGUGGAGCGAUAGCGCCAACGUUAUCAACUAUGACACGCAAAACGCGUGCUCCGUUGAAUGGAGUUUAUUAUG is higher in “polymerase ribozyme fitness (log ratio)” value: ≤ -4.2 for the first, -3.27 for the second.
